B1: Cdc11(E294C)-capped, otherwise Cys-less septin hetero-octamer (Cdc11-Cdc12-Cdc3-Cdc10-Cdc10-Cdc3-Cdc12-Cdc11) (complex, S. cerevisiae)
chain 1: MSGIIDASSALRKRKHLKRGITFTVMIVGQSGSGRSTFINTLFGQQVVDTSTTILLPTDTSTEIDLQLREETVELEDDEGVKIQLNIIDTPGFGDSLDNSPSFEIISDYIRHQYDEILLEESRVRRNPRFKDGRVHAALYLINPTGHGLKEIDVEFIRQLGSLVNIIPVISKSDSLTRDELKLNKKLIMEDIDRWNLPIYNFPFDEDEISDEDYETNMYLRTLLPFAIIGSNEVYEMGGDVGTIRGRKYPWGILDVEDSSISDFVILRNALLISHLHDLKNYTHEILYERYRTCALSGESVAAESIRPNLTKLNGSSSSSTTTRRNTNPFKQSNNINNDVLNPASDMHGQSTGENNETYMTREEQIRLEEERLKAFEERVQQELLLKRQELLQREKELREIEARLEKEAKIKQEE
chain 2: MSAATATAAPVPPPVGISNLPNQRYKIVNEEGGTFTVMLAGESGLGKTTFINTLFQTVLKRADGQQHRQEPIRKTVEIDITRALLEEKHFELRVNVIDTPGFGDNVNNNKAWQPLVDFIDDQHDSYMRQEQQPYRTKKFDLRVHAVLYFIRPTGHGLKPIDIETMKRLSTRANLIPVIAKADTLTAQELQQFKSRIRQVIEAQEIRIFTPPLDADSKEDAKSGSNPDSAAVEHARQLIEAMPFAIVGSEKKFDNGQGTQVVARKYPWGLVEIENDSHSDFRKLRALLLRTYLLDLISTTQEMHYETYRRLRLEGHENTGEGNEDFTLPAIAPARKLSHNPRYKEEENALKKYFTDQVKAEEQRFRQWEQNIVNERIRLNGDLEEIQGKVKKLEEQVKSLQVKKSHLK
chain 3: MSLKEEQVSIKQDPEQEERQHDQFNDVQIKQESQDHDGVDSQYTNGTQNDDSERFEAAESDVKVEPGLGMGITSSQSEKGQVLPDQPEIKFIRRQINGYVGFANLPKQWHRRSIKNGFSFNLLVVGPDGIGKTTLMKTLFNNDDIEANLVKDYEEELANDQEEEEGQGEGHENQSQEQRHKVKIKSYESVIEENGVKLNLNVIDTEGFGDFLNNDQKSWDPIIKEIDSRFDQYLDAENKINRHSINDKRIHAVLYFIEPTGHYLKPLDLKFMQSVYEKVNLIPVIAKSDILTDEEILSFKKTIMNQLIQSNIELFKPPIYSNDDAENSHLSERLFSSLPYAVIGSNDIVENYSGNQVRGRSYPWGVIEVDNDNHSDFNLLKNLLIKQFMEELKERTSKILYENYRSSKLAKLGIKQDNSVFKEFDPISKQQEEKTLHEAKLAKLEIEMKTVFQQKVSEKEKKLQKSETELFARHKEMKEKLTKQLKALEDKKKQLELSINSASPNVNHSPVPTKKKGFLR
chain 4: MDPLSSVQPASYVGFDTITNQIEHRLLKKGFQFNIMVVGQSGLGKSTLINTLFASHLIDSATGDDISALPVTKTTEMKISTHTLVEDRVRLNINVIDTPGFGDFIDNSKAWEPIVKYIKEQHSQYLRKELTAQRERFITDTRVHAILYFLQPNGKELSRLDVEALKRLTEIANVIPVIGKSDTLTLDERTEFRELIQNEFEKYNFKIYPYDSEELTDEELELNRSVRSIIPFAVVGSENEIEINGETFRGRKTRWSAINVEDINQSDFVYLREFLIRTHLQDLIETTSYIHYEGFRARQLIALKENANSRSSAHMSSNAIQR
modifications: Alexa Fluor 555 maleimide (donor) or Alexa Fluor 647 maleimide (acceptor) on C294 (E294C); 0.7-0.8 dye molecules per subunit
notes: intact CTE (residues 303-415) restored; Cdc12, S. cerevisiae mitotic septin, Cys-less variant; Cdc3, S. cerevisiae mitotic septin, Cys-less variant; Cdc10, S. cerevisiae mitotic septin, Cys-less variant; The same preparation was labelled separately with donor (AF555) or acceptor (AF647); both are written as this one molecule; also called Cdc11^AF555; Cdc11^AF647; source: E. coli NiCo21 (DE3), …

Data set [1] concerns the molecule itself. The data set can be described thus: FRET or BRET; as a1 but 35 nM donor (AF555)-labelled octamers; 45 mM KCl, 50 mM Tris-HCl pH 8.0; room temperature; apparent Kd. In general terms: BRET reads energy transfer from a luciferase to a nearby fluorophore.
Data set [2] addresses T1, Shs1(E344C)-capped, otherwise Cys-less septin hetero-octamer (Shs1-Cdc12-Cdc3-Cdc10-Cdc10-Cdc3-Cdc12-Shs1) (S. cerevisiae, UniProt Q07657 1-551; P32468 1-407; P32457 1-520; P25342 1-322, C29V | C148S | E344C | C40A | C278S | C124V | C253V | C279V | C266S, Alexa Fluor 555 maleimide (donor) or Alexa Fluor 647 maleimide (acceptor) on C344 (E344C)).
T1 construct: Cdc12, S. cerevisiae mitotic septin, Cys-less variant; Cdc3, S. cerevisiae mitotic septin, Cys-less variant; Cdc10, S. cerevisiae mitotic septin, Cys-less variant; Donor- and acceptor-labelled preparations are written as this one molecule; also called Shs1^AF555; Shs1^AF647; source: E. coli NiCo21 (DE3), subunits co-expressed, purified (IMAC, chitin-agarose flow-through, SEC), maleimide …
Described as above. To be noted: both partners purified.

Data set [3] deals with the molecule itself. The data set can be described thus: FRET or BRET; standard titrations of donor-labelled rods with acceptor-labelled rods in buffers of increasing KCl concentration (corrected FRET method); result at high ionic strength; apparent Kd.
The target of data set [4] is T2, Shs1(Δ2–18/Δα0 E344C)-capped, otherwise Cys-less septin hetero-octamer (S. cerevisiae, UniProt Q07657 1-551; P32468 1-407; P32457 1-520; P25342 1-322, Δ2–18 | C29V | C148S | E344C | C40A | C278S | C124V | C253V | C279V | C266S, Alexa Fluor 555 maleimide (donor) on C344 (E344C)).
T2 construct: Cdc12, S. cerevisiae mitotic septin, Cys-less variant; Cdc3, S. cerevisiae mitotic septin, Cys-less variant; Cdc10, S. cerevisiae mitotic septin, Cys-less variant; also called Shs1 Δα0^AF555; Shs1(Δα0) complexes; source: E. coli NiCo21 (DE3), subunits co-expressed, purified (IMAC, chitin-agarose flow-through, SEC), maleimide dye-labelled; not shown: His6, N-terminal, kept; copies: 2 + 2 + 2 + 2
T2 sequence (Q07657 other isoform, or with tags, fused parts or gaps with the stated changes): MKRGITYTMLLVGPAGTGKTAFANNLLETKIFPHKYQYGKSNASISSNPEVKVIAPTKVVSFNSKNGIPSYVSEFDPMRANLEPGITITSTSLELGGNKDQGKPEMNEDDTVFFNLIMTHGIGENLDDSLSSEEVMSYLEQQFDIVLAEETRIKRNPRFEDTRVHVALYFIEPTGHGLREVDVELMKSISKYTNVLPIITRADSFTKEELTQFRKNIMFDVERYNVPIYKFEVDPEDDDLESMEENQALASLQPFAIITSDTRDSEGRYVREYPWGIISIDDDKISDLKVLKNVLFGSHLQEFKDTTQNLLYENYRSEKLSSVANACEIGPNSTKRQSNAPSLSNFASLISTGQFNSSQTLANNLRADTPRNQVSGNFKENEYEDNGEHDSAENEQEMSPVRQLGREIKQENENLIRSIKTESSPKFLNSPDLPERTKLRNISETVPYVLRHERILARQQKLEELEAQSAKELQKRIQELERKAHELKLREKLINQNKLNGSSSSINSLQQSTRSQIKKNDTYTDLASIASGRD
The data set can be described thus: FRET or BRET; 25 nM donor (AF555)-labelled octamers titrated with acceptor (AF647)-labelled octamers, serial dilutions from 100 nM; 45 mM KCl, 50 mM Tris-HCl pH 8.0; room temperature, 1 h equilibration; triplicate; PCA and curve fit; apparent Kd of end-to-end association of rods. To be noted: both partners purified.

Data set [5] concerns the molecule itself. The data set can be described thus: FRET or BRET; as a1 but 50 nM donor (AF555)-labelled octamers; 45 mM KCl, 50 mM Tris-HCl pH 8.0; room temperature; apparent Kd.
The target of data set [6] is T1, Shs1(E344C)-capped, otherwise Cys-less …. Described as above. As to conditions: both partners purified.
Data set [7] deals with the molecule itself. The data set can be described thus: FRET or BRET; equimolar (1:1) donor- and acceptor-labelled octamers while varying ionic strength (KCl); PCA; EC50 of ionic strength and apparent Hill coefficient.
Data set [8] has as its target T1, Shs1(E344C)-capped, otherwise Cys-less …. Described as above. To be noted: both partners purified.
Data set [9] concerns the molecule itself. The experiment in a line: FRET or BRET; 25 nM donor (AF555)-labelled octamers titrated with acceptor (AF647)-labelled octamers, serial dilutions from 100 nM; 45 mM KCl, 50 mM Tris-HCl pH 8.0; room temperature, 1 h equilibration; triplicate; PCA and curve fit; apparent Kd of end-to-end association of rods.
Data set [10] deals with T1, Shs1(E344C)-capped, otherwise Cys-less …. The data set is described as above. To be noted: both partners purified.
For data set [11], the target named is B1. The data set can be described thus: FRET or BRET; 25 nM Cdc11^AF555 octamers assembled into filaments at low salt, titrated with Bni5^AF647 (maximum 500 nM); apparent Kd. To be noted: both partners purified.
Data set [12] deals with B1. The experiment in a line: FRET or BRET; 15 nM Cdc11^AF555 octamers assembled into filaments at low salt, titrated with Bni5^AF647 (maximum 500 nM); apparent Kd. To be noted: both partners purified.

T1 sequence (Q07657 whole entry C29V/C148S/E344C, one chain of several): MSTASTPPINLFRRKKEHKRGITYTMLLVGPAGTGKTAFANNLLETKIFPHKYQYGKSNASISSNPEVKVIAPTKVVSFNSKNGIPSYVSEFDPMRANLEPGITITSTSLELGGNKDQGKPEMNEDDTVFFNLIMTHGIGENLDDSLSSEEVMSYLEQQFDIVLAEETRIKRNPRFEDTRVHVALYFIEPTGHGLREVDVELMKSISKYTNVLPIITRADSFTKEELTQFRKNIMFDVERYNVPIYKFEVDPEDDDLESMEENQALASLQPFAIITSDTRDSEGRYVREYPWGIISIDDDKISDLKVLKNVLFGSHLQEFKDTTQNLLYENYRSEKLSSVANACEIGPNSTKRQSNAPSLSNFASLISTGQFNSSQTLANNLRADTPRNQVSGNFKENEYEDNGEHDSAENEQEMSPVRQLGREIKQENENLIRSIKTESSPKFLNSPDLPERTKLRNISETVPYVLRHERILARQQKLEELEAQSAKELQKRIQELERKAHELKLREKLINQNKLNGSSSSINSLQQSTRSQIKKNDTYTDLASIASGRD

For B1, the Kd in [1] was 0.0345 µM; in data set [2], 0.0213 µM; in data set [3], over 0.1 µM; in [4], 0.0406 µM; in [5], 0.0388 µM; in data set [6], 0.0275 µM. Moreover, the Kd in data set [9] amounted to 0.0202 µM; in data set [10], 0.0108 µM. The “ionic strength (KCl) at EC50 of the FRET signal” value is 181000 µM in [7] and 198000 µM in data set [8].

B2: Bni5 (Bud neck-interacting protein 5), type II myosin-binding protein (natural protein, S. cerevisiae, UniProt P53890 1-448, looked up)
chain: MGLDQDKIKKRLSQIEIDINQMNQMIDENLQLVEPAEDEAVEDNVKDTGVVDAVKVAETALFSGNDGADSNPGDSAQVEEHKTAQVHIPTENEANKSTDDPSQLSVTQPFIAKEQITHTAIAIGDSYNSFVANSAGNEKAKDSCTENKEDGTVNIDQNRGEADVEIIENNDDEWEDEKSDVEEGRVDKGTEENSEIESFKSPMPQNNTLGGENKLDAELVLDKFSSANKDLDIQPQTIVVGGDNEYNHESSRLADQTPHDDNSENCPNRSGGSTPLDSQTKIFIPKKNSKEDGTNINHFNSDGDGQKKMANFETRRPTNPFRVISVSSNSNSRNGSRKSSLNKYDSPVSSPITSASELGSIAKLEKRHDYLSMKCIKLQKEIDYLNKMNAQGSLSMEDGKRLHRAVVKLQEYLDKKTKEKYEVGVLLSRHLRKQIDRGENGQFWIGTK
modifications: Alexa Fluor 647 maleimide on the native cysteines Cys-144, Cys-266 and Cys-375 (2.7 dye molecules per protein)
notes: Bni5, S. cerevisiae; the BNI5 ORF cloned behind His8 and a human rhinovirus 3C protease site in pH3c-LIC; also called Bni5^AF647; acceptor dye-labeled Bni5; source: E. coli NiCo21 (DE3), purified (IMAC, chitin-agarose, SEC), maleimide dye-labelled
For the molecule B2, the Kd came to 0.21 µM in data set [11] and 0.222 µM in data set [12].

The values are drawn from article PMC4653696 (The Journal of Biological Chemistry, 2015).
